Assay results: paper PMC11026473

Target: myc-Xbra (UniProt P24781)
Experiment: co-immunoprecipitation (IP: Flag, WB: Myc), band intensity quantified
Conditions: Xenopus embryos injected with flag-smad1 constructs and myc-xbra; parent: est. 1.0; read off a plot

UniProt P24781, sequence (P24781 whole entry): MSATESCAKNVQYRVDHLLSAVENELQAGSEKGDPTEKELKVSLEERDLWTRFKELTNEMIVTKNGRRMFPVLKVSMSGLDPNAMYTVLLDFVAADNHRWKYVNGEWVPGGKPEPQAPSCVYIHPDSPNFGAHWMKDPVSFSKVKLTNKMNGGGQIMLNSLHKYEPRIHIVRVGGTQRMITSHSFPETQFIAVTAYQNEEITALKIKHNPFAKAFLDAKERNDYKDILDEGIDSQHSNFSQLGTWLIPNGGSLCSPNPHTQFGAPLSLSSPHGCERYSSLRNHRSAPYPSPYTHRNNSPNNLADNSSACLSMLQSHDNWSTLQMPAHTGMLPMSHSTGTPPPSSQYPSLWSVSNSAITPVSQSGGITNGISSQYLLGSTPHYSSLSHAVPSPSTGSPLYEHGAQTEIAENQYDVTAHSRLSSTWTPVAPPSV

Row | ratio to parent | Substance
1 | 0.65 | flag-Smad1 (WT) (from UniProt Q15797) S187A; S196A; S206A; S214A; C-terminal SSXS to DDXD (4SA3SD)
2 | 4.1 | flag-Smad1 (WT) (from UniProt Q15797) S187D; S196D; S206D; S214D; C-terminal SSXS to DDXD (4SD3SD)
